Data as given in PMC3859580, “The PS1 Hairpin of Mcm3 Is Essential for Viability and for DNA Unwinding In Vitro” (PLoS ONE, 2013).

B1: Mcm3 (wild type), subunit of Saccharomyces cerevisiae Mcm2-7 (natural protein, S. cerevisiae, UniProt P24279 1-971, looked up)
chain: MEGSTGFDGDATTFFAPDAVFGDRVRRFQEFLDTFTSYRDSVRSIQVYNSNNAANYNDDQDDADERDLLGDDDGDDLEKEKKAASSTSLNILPHRIIISLDDLREFDRSFWSGILVEPAYFIPPAEKALTDLADSMDDVPHPNASAVSSRHPWKLSFKGSFGAHALSPRTLTAQHLNKLVSVEGIVTKTSLVRPKLIRSVHYAAKTGRFHYRDYTDATTTLTTRIPTPAIYPTEDTEGNKLTTEYGYSTFIDHQRITVQEMPEMAPAGQLPRSIDVILDDDLVDKTKPGDRVNVVGVFKSLGAGGMNQSNSNTLIGFKTLILGNTVYPLHARSTGVAARQMLTDFDIRNINKLSKKKDIFDILSQSLAPSIYGHDHIKKAILLMLMGGVEKNLENGSHLRGDINILMVGDPSTAKSQLLRFVLNTASLAIATTGRGSSGVGLTAAVTTDRETGERRLEAGAMVLADRGVVCIDEFDKMTDVDRVAIHEVMEQQTVTIAKAGIHTTLNARCSVIAAANPVFGQYDVNRDPHQNIALPDSLLSRFDLLFVVTDDINEIRDRSISEHVLRTHRYLPPGYLEGEPVRERLNLSLAVGEDADINPEEHSNSGAGVENEGEDDEDHVFEKFNPLLQAGAKLAKNKGNYNGTEIPKLVTIPFLRKYVQYAKERVIPQLTQEAINVIVKNYTDLRNDDNTKKSPITARTLETLIRLATAHAKVRLSKTVNKVDAKVAANLLRFALLGEDIGNDIDEEESEYEEALSKRSPQKSPKKRQRVRQPASNSGSPIKSTPRRSTASSVNATPSSARRILRFQDDEQNAGEDDNDIMSPLPADEEAELQRRLQLGLRVSPRRREHLHAPEEGSSGPLTEVGTPRLPNVSSAGQDDEQQQSVISFDNVEPGTISTGRLSLISGIIARLMQTEIFEEESYPVASLFERINEELPEEEKFSAQEYLAGLKIMSDRNNLMVADDKVWRV
notes: source: E. coli, purified, reconstituted into Mcm2-7 as described [27]
B2: Mcm3_(K499A), Mcm3 with the PS1 hairpin mutation (natural protein, S. cerevisiae, UniProt P24279 1-971, looked up)
chain: MEGSTGFDGDATTFFAPDAVFGDRVRRFQEFLDTFTSYRDSVRSIQVYNSNNAANYNDDQDDADERDLLGDDDGDDLEKEKKAASSTSLNILPHRIIISLDDLREFDRSFWSGILVEPAYFIPPAEKALTDLADSMDDVPHPNASAVSSRHPWKLSFKGSFGAHALSPRTLTAQHLNKLVSVEGIVTKTSLVRPKLIRSVHYAAKTGRFHYRDYTDATTTLTTRIPTPAIYPTEDTEGNKLTTEYGYSTFIDHQRITVQEMPEMAPAGQLPRSIDVILDDDLVDKTKPGDRVNVVGVFKSLGAGGMNQSNSNTLIGFKTLILGNTVYPLHARSTGVAARQMLTDFDIRNINKLSKKKDIFDILSQSLAPSIYGHDHIKKAILLMLMGGVEKNLENGSHLRGDINILMVGDPSTAKSQLLRFVLNTASLAIATTGRGSSGVGLTAAVTTDRETGERRLEAGAMVLADRGVVCIDEFDKMTDVDRVAIHEVMEQQTVTIAAAGIHTTLNARCSVIAAANPVFGQYDVNRDPHQNIALPDSLLSRFDLLFVVTDDINEIRDRSISEHVLRTHRYLPPGYLEGEPVRERLNLSLAVGEDADINPEEHSNSGAGVENEGEDDEDHVFEKFNPLLQAGAKLAKNKGNYNGTEIPKLVTIPFLRKYVQYAKERVIPQLTQEAINVIVKNYTDLRNDDNTKKSPITARTLETLIRLATAHAKVRLSKTVNKVDAKVAANLLRFALLGEDIGNDIDEEESEYEEALSKRSPQKSPKKRQRVRQPASNSGSPIKSTPRRSTASSVNATPSSARRILRFQDDEQNAGEDDNDIMSPLPADEEAELQRRLQLGLRVSPRRREHLHAPEEGSSGPLTEVGTPRLPNVSSAGQDDEQQQSVISFDNVEPGTISTGRLSLISGIIARLMQTEIFEEESYPVASLFERINEELPEEEKFSAQEYLAGLKIMSDRNNLMVADDKVWRV
notes: Mcm3, S. cerevisiae, K499A; NdeI-SacI fragment of mcm3_(K499A)-YCplac111 in pET24a (pMD466); also called the Mcm3 subunit of Mcm2-7_(3K499A); source: E. coli BL21 DE3 Codon+, purified (ammonium sulfate, Q Sepharose, ssDNA-Sepharose, MonoQ, MonoS)

Legend:
Assay in all cases: SEC; individual purified Mcm subunits mixed in equal molar ratios to reconstitute the hexameric complex; elution from a gel filtration column, fractions analysed by SDS-PAGE
Conditions in all cases: both partners purified
[1] = target: T1, Mcm6, subunit of Saccharomyces cerevisiae Mcm2-7 (S. cerevisiae, UniProt P53091 1-1017)
T1 construct: Mcm6, S. cerevisiae, recombinant subunit; source: E. coli, purified, reconstituted into Mcm2-7 as described [27]

[2] = target: B1
[3] = target: B2

T1 sequence (P53091 whole entry): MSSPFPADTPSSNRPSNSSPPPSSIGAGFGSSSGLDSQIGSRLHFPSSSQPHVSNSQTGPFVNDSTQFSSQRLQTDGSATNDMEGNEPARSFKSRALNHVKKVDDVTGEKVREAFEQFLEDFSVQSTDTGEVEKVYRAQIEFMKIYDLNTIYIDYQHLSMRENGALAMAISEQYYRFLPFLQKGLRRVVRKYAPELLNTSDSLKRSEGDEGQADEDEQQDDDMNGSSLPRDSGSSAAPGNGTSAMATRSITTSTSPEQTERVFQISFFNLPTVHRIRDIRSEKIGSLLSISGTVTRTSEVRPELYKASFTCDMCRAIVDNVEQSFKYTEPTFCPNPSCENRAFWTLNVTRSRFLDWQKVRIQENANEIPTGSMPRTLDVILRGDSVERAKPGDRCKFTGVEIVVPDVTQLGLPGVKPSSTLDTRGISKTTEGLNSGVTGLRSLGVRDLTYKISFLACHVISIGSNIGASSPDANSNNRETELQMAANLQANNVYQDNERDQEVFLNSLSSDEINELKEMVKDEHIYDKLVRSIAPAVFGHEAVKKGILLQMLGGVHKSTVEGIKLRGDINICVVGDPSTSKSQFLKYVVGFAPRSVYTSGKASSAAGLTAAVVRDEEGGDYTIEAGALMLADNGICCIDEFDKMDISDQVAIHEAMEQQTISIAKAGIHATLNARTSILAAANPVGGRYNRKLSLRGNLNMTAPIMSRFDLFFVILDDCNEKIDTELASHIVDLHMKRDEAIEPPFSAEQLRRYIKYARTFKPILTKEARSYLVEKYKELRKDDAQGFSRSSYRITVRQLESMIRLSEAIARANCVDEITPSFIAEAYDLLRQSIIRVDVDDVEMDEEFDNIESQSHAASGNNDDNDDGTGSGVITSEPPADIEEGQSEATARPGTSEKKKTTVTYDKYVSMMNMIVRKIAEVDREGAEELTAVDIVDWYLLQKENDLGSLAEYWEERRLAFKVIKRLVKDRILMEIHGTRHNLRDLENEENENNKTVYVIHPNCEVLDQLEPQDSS

Row | binding result [1] | binding result [2] | binding result [3] | Binder
1 | binds | – | – | B1
2 | – | binds | binds | Mcm2, subunit of Saccharomyces cerevisiae Mcm2-7 (natural protein, S. cerevisiae, UniProt P29469 1-868, looked up, Mcm2, S. cerevisiae, recombinant subunit; source: E. coli, purified, reconstituted into Mcm2-7 as described [27]) MSDNRRRRREEDDSDSENELPPSSPQQHFRGGMNPVSSPIGSPDMINPEGDDNEVDDVPDIDEVEEQMNEVDLMDDNMYEDYAADHNRDRYDPDQVDDREQQELSLSERRRIDAQLNERDRLLRNVAYIDDEDEEQEGAAQLDEMGLPVQRRRRRRQYEDLENSDDDLLSDMDIDPLREELTLESLSNVKANSYSEWITQPNVSRTIARELKSFLLEYTDETGRSVYGARIRTLGEMNSESLEVNYRHLAESKAILALFLAKCPEEMLKIFDLVAMEATELHYPDYARIHSEIHVRISDFPTIYSLRELRESNLSSLVRVTGVVTRRTGVFPQLKYVKFNCLKCGSILGPFFQDSNEEIRISFCTNCKSKGPFRVNGEKTVYRNYQRVTLQEAPGTVPPGRLPRHREVILLADLVDVSKPGEEVEVTGIYKNNYDGNLNAKNGFPVFATIIEANSIKRREGNTANEGEEGLDVFSWTEEEEREFRKISRDRGIIDKIISSMAPSIYGHRDIKTAVACSLFGGVPKNVNGKHSIRGDINVLLLGDPGTAKSQILKYVEKTAHRAVFATGQGASAVGLTASVRKDPITKEWTLEGGALVLADKGVCLIDEFDKMNDQDRTSIHEAMEQQSISISKAGIVTTLQARCSIIAAANPNGGRYNSTLPLAQNVSLTEPILSRFDILCVVRDLVDEEADERLATFVVDSHVRSHPENDEDREGEELKNNGESAIEQGEDEINEQLNARQRRLQRQRKKEEEISPIPQELLMKYIHYARTKIYPKLHQMDMDKVSRVYADLRRESISTGSFPITVRHLESILRIAESFAKMRLSEFVSSYDLDRAIKVVVDSFVDAQKVSVRRQLRRSFAIYTLGH
3 | – | binds | binds | Mcm7, subunit of Saccharomyces cerevisiae Mcm2-7 (natural protein, S. cerevisiae, UniProt P38132 1-845, looked up, Mcm7, S. cerevisiae, recombinant subunit; source: E. coli, purified, reconstituted into Mcm2-7 as described [27]) MSAALPSIQLPVDYNNLFNEITDFLVTFKQDTLSSDATRNENEDENLDAENIEQHLLEKGPKYMAMLQKVANRELNSVIIDLDDILQYQNEKFLQGTQADDLVSAIQQNANHFTELFCRAIDNNMPLPTKEIDYKDDVLDVILNQRRLRNERMLSDRTNEIRSENLMDTTMDPPSSMNDALREVVEDETELFPPNLTRRYFLYFKPLSQNCARRYRKKAISSKPLSVRQIKGDFLGQLITVRGIITRVSDVKPAVEVIAYTCDQCGYEVFQEVNSRTFTPLSECTSEECSQNQTKGQLFMSTRASKFSAFQECKIQELSQQVPVGHIPRSLNIHVNGTLVRSLSPGDIVDVTGIFLPAPYTGFKALKAGLLTETYLEAQFVRQHKKKFASFSLTSDVEERVMELITSGDVYNRLAKSIAPEIYGNLDVKKALLLLLVGGVDKRVGDGMKIRGDINVCLMGDPGVAKSQLLKAICKISPRGVYTTGKGSSGVGLTAAVMKDPVTDEMILEGGALVLADNGICCIDEFDKMDESDRTAIHEVMEQQTISISKAGINTTLNARTSILAAANPLYGRYNPRLSPLDNINLPAALLSRFDILFLMLDIPSRDDDEKLAEHVTYVHMHNKQPDLDFTPVEPSKMREYIAYAKTKRPVMSEAVNDYVVQAYIRLRQDSKREMDSKFSFGQATPRTLLGIIRLSQALAKLRLADMVDIDDVEEALRLVRVSKESLYQETNKSKEDESPTTKIFTIIKKMLQETGKNTLSYENIVKTVRLRGFTMLQLSNCIQEYSYLNVWHLINEGNTLKFVDDGTMDTDQEDSLVSTPKLAPQTTASANVSAQDSDIDLQDA
4 | – | binds | binds | Mcm4, subunit of Saccharomyces cerevisiae Mcm2-7 (natural protein, S. cerevisiae, UniProt P30665 1-933, looked up, Mcm4, S. cerevisiae, recombinant subunit; source: E. coli, purified, reconstituted into Mcm2-7 as described [27]) MSQQSSSPTKEDNNSSSPVVPNPDSVPPQLSSPALFYSSSSSQGDIYGRNNSQNLSQGEGNIRAAIGSSPLNFPSSSQRQNSDVFQSQGRQGRIRSSASASGRSRYHSDLRSDRALPTSSSSLGRNGQNRVHMRRNDIHTSDLSSPRRIVDFDTRSGVNTLDTSSSSAPPSEASEPLRIIWGTNVSIQECTTNFRNFLMSFKYKFRKILDEREEFINNTTDEELYYIKQLNEMRELGTSNLNLDARNLLAYKQTEDLYHQLLNYPQEVISIMDQTIKDCMVSLIVDNNLDYDLDEIETKFYKVRPYNVGSCKGMRELNPNDIDKLINLKGLVLRSTPVIPDMKVAFFKCNVCDHTMAVEIDRGVIQEPARCERIDCNEPNSMSLIHNRCSFADKQVIKLQETPDFVPDGQTPHSISLCVYDELVDSCRAGDRIEVTGTFRSIPIRANSRQRVLKSLYKTYVDVVHVKKVSDKRLDVDTSTIEQELMQNKVDHNEVEEVRQITDQDLAKIREVAAREDLYSLLARSIAPSIYELEDVKKGILLQLFGGTNKTFTKGGRYRGDINILLCGDPSTSKSQILQYVHKITPRGVYTSGKGSSAVGLTAYITRDVDTKQLVLESGALVLSDGGVCCIDEFDKMSDSTRSVLHEVMEQQTISIAKAGIITTLNARSSILASANPIGSRYNPNLPVTENIDLPPPLLSRFDLVYLVLDKVDEKNDRELAKHLTNLYLEDKPEHISQDDVLPVEFLTMYISYAKEHIHPIITEAAKTELVRAYVGMRKMGDDSRSDEKRITATTRQLESMIRLAEAHAKMKLKNVVELEDVQEAVRLIRSAIKDYATDPKTGKIDMNLVQTGKSVIQRKLQEDLSREIMNVLKDQASDSMSFNELIKQINEHSQDRVESSDIQEALSRLQQEDKVIVLGEGVRRSVRLNNRV
5 | binds | – | – | B2
